Test results published in PMC9279153, “Structure of the Dicer-2–R2D2 heterodimer bound to a small RNA duplex”.

Legend:
Dicer-2;R2D2 [1] = biological target: T1, Dicer-2;R2D2 (Drosophila;Drosophila, UniProt A1ZAW0;Q9VLW8 1-1722;1-311, |); test: photocrosslinking; g* crosslinks to R2D2; Crosslinking: 20 nM siRNA, 40 nM Dicer-2-R2D2, 30 min, >300 nm UV 60 s, buffer not given; structure: 30 mM Hepes-KOH pH 7.4, 100 mM potassium acetate, 2 mM magnesium acetate, 1 mM DTT, 0.02% glycerol, protein:siRNA 1:2 mixed at room temperature; settings: protein: recombinant;recombinant; tags: 8xHis (structure prep);3xFlag; copies: 1;1; 3' overhang 2 nt on both strands
T1 sequence (A1ZAW0 whole entry, chain 1 of 2): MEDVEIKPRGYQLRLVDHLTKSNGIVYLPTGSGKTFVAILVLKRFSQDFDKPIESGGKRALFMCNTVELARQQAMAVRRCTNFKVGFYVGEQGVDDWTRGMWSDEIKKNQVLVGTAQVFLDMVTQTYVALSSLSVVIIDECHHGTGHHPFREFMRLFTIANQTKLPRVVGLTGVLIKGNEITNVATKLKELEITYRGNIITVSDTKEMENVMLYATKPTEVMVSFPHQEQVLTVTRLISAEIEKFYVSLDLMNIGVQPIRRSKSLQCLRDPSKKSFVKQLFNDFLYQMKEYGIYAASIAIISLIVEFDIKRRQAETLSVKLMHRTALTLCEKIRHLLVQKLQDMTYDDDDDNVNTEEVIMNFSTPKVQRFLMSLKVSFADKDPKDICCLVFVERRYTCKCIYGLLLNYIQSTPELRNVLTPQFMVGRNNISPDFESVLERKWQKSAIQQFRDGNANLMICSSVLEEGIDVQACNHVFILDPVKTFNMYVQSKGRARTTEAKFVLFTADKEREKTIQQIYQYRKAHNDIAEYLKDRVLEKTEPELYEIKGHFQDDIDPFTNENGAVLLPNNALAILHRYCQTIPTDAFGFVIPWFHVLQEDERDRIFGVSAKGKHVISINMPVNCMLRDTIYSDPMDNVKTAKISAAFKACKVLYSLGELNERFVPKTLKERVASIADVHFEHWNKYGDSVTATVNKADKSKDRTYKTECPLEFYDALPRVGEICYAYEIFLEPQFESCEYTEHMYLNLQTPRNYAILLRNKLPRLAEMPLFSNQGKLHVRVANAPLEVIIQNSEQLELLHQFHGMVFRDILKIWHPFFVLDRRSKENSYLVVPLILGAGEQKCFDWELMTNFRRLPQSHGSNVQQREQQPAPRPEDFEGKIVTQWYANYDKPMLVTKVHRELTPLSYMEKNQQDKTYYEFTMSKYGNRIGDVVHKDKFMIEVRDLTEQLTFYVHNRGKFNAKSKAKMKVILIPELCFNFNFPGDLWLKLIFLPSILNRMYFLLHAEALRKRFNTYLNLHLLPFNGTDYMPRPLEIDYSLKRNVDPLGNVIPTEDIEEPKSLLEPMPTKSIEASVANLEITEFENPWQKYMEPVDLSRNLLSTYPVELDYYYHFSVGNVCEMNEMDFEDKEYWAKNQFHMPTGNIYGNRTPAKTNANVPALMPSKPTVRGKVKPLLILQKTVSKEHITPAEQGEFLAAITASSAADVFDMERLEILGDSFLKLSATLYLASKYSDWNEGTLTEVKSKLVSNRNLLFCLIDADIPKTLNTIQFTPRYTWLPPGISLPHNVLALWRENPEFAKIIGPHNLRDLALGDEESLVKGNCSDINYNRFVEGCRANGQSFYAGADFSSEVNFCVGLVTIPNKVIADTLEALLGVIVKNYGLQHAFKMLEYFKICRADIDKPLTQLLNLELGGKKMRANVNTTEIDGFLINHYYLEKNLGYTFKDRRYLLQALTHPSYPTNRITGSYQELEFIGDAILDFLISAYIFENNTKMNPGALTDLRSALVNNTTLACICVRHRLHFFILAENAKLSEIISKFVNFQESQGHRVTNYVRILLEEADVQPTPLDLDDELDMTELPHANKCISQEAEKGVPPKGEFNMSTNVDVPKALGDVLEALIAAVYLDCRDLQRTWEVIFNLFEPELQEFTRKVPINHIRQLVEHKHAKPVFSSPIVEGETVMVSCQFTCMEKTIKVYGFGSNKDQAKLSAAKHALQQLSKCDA
T1 sequence (chain, as listed by the source |, chain 2 of 2): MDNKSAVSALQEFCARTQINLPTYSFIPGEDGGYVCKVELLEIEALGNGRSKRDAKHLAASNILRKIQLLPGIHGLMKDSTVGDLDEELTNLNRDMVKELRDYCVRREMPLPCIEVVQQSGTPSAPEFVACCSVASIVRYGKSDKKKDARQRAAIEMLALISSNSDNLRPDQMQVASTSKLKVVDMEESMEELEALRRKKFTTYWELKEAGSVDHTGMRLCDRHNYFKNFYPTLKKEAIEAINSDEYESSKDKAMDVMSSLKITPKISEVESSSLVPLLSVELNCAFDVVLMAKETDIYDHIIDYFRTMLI

Dicer-2;R2D2 K98A = Dicer-2;R2D2 K98A (Drosophila;Drosophila, UniProt A1ZAW0;Q9VLW8 1-1722;1-311, |K98A); test: photocrosslinking; g* crosslinking not affected by K98A; Crosslinking: 20 nM siRNA, 40 nM Dicer-2-R2D2, 30 min, >300 nm UV 60 s, buffer not given; structure: 30 mM Hepes-KOH pH 7.4, 100 mM potassium acetate, 2 mM magnesium acetate, 1 mM DTT, 0.02% glycerol, protein:siRNA 1:2 mixed at room temperature; settings: protein: recombinant;recombinant; tags: 8xHis (structure prep);3xFlag; copies: 1;1; 3' overhang 2 nt on both strands
Sequence of Dicer-2;R2D2 K98A (A1ZAW0 whole entry, chain 1 of 2): as the sequence (A1ZAW0 whole entry, chain 1 of 2) above
Sequence of Dicer-2;R2D2 K98A (chain, as listed by the source |K98A | K98A K98A, chain 2 of 2): as the sequence (chain, as listed by the source |, chain 2 of 2) above, with K98A counted along it

Dicer-2;R2D2 CTD Δα2 = Dicer-2;R2D2 CTD Δα2 (Drosophila;Drosophila, UniProt A1ZAW0;Q9VLW8 1-1722;1-201+=GGGS+215-311, |internal_change); test: photocrosslinking; g* crosslink to R2D2 abolished, g* crosslink to Dicer-2 increased (opposite orientation); Crosslinking: 20 nM siRNA, 40 nM Dicer-2-R2D2, 30 min, >300 nm UV 60 s, buffer not given; structure: 30 mM Hepes-KOH pH 7.4, 100 mM potassium acetate, 2 mM magnesium acetate, 1 mM DTT, 0.02% glycerol, protein:siRNA 1:2 mixed at room temperature; settings: protein: recombinant;recombinant; tags: 8xHis (structure prep);3xFlag; copies: 1;1; 3' overhang 2 nt on both strands
Sequence of Dicer-2;R2D2 CTD Δα2 (A1ZAW0 whole entry, stated change not applied, chain 1 of 2): as the sequence (A1ZAW0 whole entry, chain 1 of 2) above
Sequence of Dicer-2;R2D2 CTD Δα2 (chain, as listed by the source | | mutant, chain 2 of 2): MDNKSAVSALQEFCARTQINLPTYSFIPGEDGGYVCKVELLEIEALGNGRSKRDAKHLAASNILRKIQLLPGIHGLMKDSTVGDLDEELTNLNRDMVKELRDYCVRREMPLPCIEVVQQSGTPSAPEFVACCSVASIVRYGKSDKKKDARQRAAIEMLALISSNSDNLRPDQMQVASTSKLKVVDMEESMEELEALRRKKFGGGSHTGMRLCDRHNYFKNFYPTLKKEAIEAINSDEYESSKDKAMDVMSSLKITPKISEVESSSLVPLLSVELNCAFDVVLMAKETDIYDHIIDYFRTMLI

Dicer-2;R2D2 [2] = biological target: T1, Dicer-2;R2D2; test: photocrosslinking; crosslinks to R2D2, similar to 2-nt overhang; Crosslinking: 20 nM siRNA, 40 nM Dicer-2-R2D2, 30 min, >300 nm UV 60 s, buffer not given; structure: 30 mM Hepes-KOH pH 7.4, 100 mM potassium acetate, 2 mM magnesium acetate, 1 mM DTT, 0.02% glycerol, protein:siRNA 1:2 mixed at room temperature; settings: protein: recombinant;recombinant; tags: 8xHis (structure prep);3xFlag; copies: 1;1; U-U mismatch at nt 1 of strand 1
Dicer-2;R2D2 [3] = biological target: T1, Dicer-2;R2D2; test: cryo-EM; two duplexes: one on R2D2 (well resolved), one on Dicer-2 helicase (poorly resolved); Crosslinking: 20 nM siRNA, 40 nM Dicer-2-R2D2, 30 min, >300 nm UV 60 s, buffer not given; structure: 30 mM Hepes-KOH pH 7.4, 100 mM potassium acetate, 2 mM magnesium acetate, 1 mM DTT, 0.02% glycerol, protein:siRNA 1:2 mixed at room temperature; settings: protein: recombinant;recombinant; tags: 8xHis (structure prep);3xFlag; copies: 1;1; 19-nt duplex region with U-U mismatch at g1:p19; 3' overhang 2 nt on both strands
Dicer-2;R2D2 [4] = biological target: T1, Dicer-2;R2D2; test: photocrosslinking; crosslinks to R2D2; Crosslinking: 20 nM siRNA, 40 nM Dicer-2-R2D2, 30 min, >300 nm UV 60 s, buffer not given; structure: 30 mM Hepes-KOH pH 7.4, 100 mM potassium acetate, 2 mM magnesium acetate, 1 mM DTT, 0.02% glycerol, protein:siRNA 1:2 mixed at room temperature; settings: protein: recombinant;recombinant; tags: 8xHis (structure prep);3xFlag; copies: 1;1; 3' overhang 2 nt on strand 2; U-U mismatch at nt 1 of strand 1

B1: g* siRNA, 2-nt overhang (siRNA-1/siRNA-2) (dsRNA)
RNA 1: UGAGGUAGUAGGUUGUAUAUU
RNA 2: UAUACAACCUACUACCUCUUU
modifications: 5-iodouracil at position 20 of strand 1 (written as U)
B1: binds (Dicer-2;R2D2 [1]); binds (Dicer-2;R2D2 K98A); binds (Dicer-2;R2D2 CTD Δα2).

B2: g* siRNA, 1-nt overhang (siRNA-4/siRNA-2) (dsRNA)
RNA 1: UGAGGUAGUAGGUUGUAUAU
RNA 2: UAUACAACCUACUACCUCUUU
modifications: 5-iodouracil at position 20 of strand 1 (written as U)
B2: binds (Dicer-2;R2D2 [2]).

B3: let-7 siRNA duplex (guide/passenger) (dsRNA)
RNA 1: UGAGGUAGUAGGUUGUAUAGU
RNA 2: UAUACAACCUACUACCUCUCU
modifications: 5'-phosphate (passenger p1)
B3: binds (Dicer-2;R2D2 [3]).

B4: g* siRNA, blunt stable end (siRNA-4/siRNA-5) (dsRNA)
RNA 1: UGAGGUAGUAGGUUGUAUAU
RNA 2: AUAUACAACCUACUACCUCUUU
modifications: 5-iodouracil at position 20 of strand 1 (written as U)
B4: binds (Dicer-2;R2D2 [4]).
